The values that follow come from the RNAGym collection of RNA variant scans (doi:10.1073/pnas.2313332121).

B1: TPR 5TU (parent)
chain: GGAUCUUCUCGAUCUAACAAAAAAGACAAAUCUGCCACAAAGCUUGAGAGCAUCUUCGGAUGCAGAGGCGGCAGCCUUCGGUGGCGCGAUAGCGCCAACGUUCUCAACUAUGACACGCAAAACGCGUGCUCCGUUGAAUGGAGUUUAUCAUG

This sample holds only a part of the variants without activity.

In the series the parent is B1. As to the kind of experiment: polymerase ribozyme fitness, log enrichment relative to wild type (log ratio); higher = more active; in vitro selection for triplet polymerase activity. The gist of the method:
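Mutant libraries of both subunits of a heterodimeric triplet polymerase ribozyme were PCR-built, transcribed, and selected once in triplicate, with frozen incubation at −7 °C and capture of gel-excised extended constructs on streptavidin beads before RT-PCR. Illumina sequencing of input and output libraries was filtered to genotypes with ≥10 input reads and ≥1 read per output. Fitness is the logarithm of genotype enrichment over wild-type enrichment, using inverse-variance-weighted replicate averages. The logarithm is base 2.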
For the variant GGAACUUGUCGAUCUAACAAAAAAGACAAAUCUGCCACAAAGCUUGAGAGCAGCUUCGGAUGCAGAGGCGUCGGCCUUGGGUGGGGAUAUAUCGCCAACGUUCUCAACUAUGACGCGCAAAACGCGUGCUCCGUUGAAUGGAGUUUAUCAUG [U4A C8G U53G G71U A73G C79G C85G C87A G88U G92U A115G], the “polymerase ribozyme fitness (log ratio)” value is not above -4.2.
For the variant GGAUCUUCUCGAUCUAACAAAAAAGACAAAUCUGCCACAAUGCUUGAGAGCAUCUUCGGAUGCAGAGGCGGCAGCCUUCGGUGGCGCGAUAGCGCCAACGUUCUCAACUAAGACACGCAAAACGCGUGCUCCGUUGAAUGGAGUUUAUCAUG [A41U U111A], the “polymerase ribozyme fitness (log ratio)” value is -3.7.
For GGAUCUUCUCGAUCUAACAAAAAAGACAAAUCUCCCACAAAGCUUGAGAGGAUCUUUGGAUGCAGAGGCGGCAGCCUUCGGUCGCGCGAUAGCGCCAACGUUCUCAACUAUGACACGCAAAACGCGUGCUCCGUUGAAUGGAGUUUAUCAUG [G34C C51G C57U G83C], the “polymerase ribozyme fitness (log ratio)” value was not above -4.2.
As to GGAUCUUCUCGAUCUAACAAAAAAGACAAAUCUGCCACAAAGCUUGAGAGCAUCUUCGGAUGCAGAGGCGGCAGCAUUCGGUGGCGCGAUAGCGCCAACGUUCUCAACUAUGACACGCAAAACGCGUGCUCCGUUGAAUGGAGUGUAUCAUG [C76A U145G], the “polymerase ribozyme fitness (log ratio)” value was -0.329.
Turning to GGAUCUUCUCGAUCUAACAAAAAAGACAAAUCUGCCACAAAGCUUGAGAGAAUCUUCGGAUGCAGAGGCGGCAGCCUUCGGUGGCGCGAUAGCGUCUACGUUCUCAACUAUGACACGCAAAACGCGUGCUCCGUUGAAUGGAGUUUAUCAUG [C51A C95U A97U], the “polymerase ribozyme fitness (log ratio)” value was -2.64.
For GGAUCUUCUCGAUCUAACAAAAAAGACAAAUCUGCCACAAAGCUUGAGAGCAUCUUCGGAUGCAGAGGCGGCAGCCUUCGGUGGCGCGAUAGCGCCAACGAUCUUAACUAUGAAACGCAAAACGCGUGCUCCGUUGAAUGGAGUUUAUCAUG [U101A C105U C114A], the “polymerase ribozyme fitness (log ratio)” value is -3.17.
The result for GGAUCUUCUCGAUCUACCAAAAAAGACAAAUCUGCCACAAAGCUUGAGAGCAUCUUCGGAUGCAGAGGCGGCAGCUUUCGGUGGCGCGAUAUCGCCAACGUUCUCAACUAUGACACGCAAAACGCGUGAUCCGUUGAAUGGAGUUUAUCAUG [A17C C76U G92U C129A] reads -3.05; that for GGAUCUUCUCGAUCUAACAAAAAAGACAAAUCUGCCACAAAGCUUGAGAGCAUCUUCGGAUGCAGAGGCGGCAGCCUUCGGUGGCGCGAUAGCGCUAACGUGCUCAACUAUGACACGCAAAACGCGUGCUCCGUUGAAUGGAGAUUAUCUUG [C96U U102G U144A A150U], not above -4.2; that for GGAUCUUCUCGAUCUAACAAAAAAGAGAAAUCUGCCACAAAGCUUGAGAGCAUCAUCGGAUGCAGAGGCGGCGGCCAUCGGUGGCGAGAUAGCGCCAACGUUCUCAACUAUGACACGCAAAACGCGUGCUCCGUUGAAUGGUGUUUAUCAUG [C27G U55A A73G U77A C87A A142U], not above -4.2.
On to GGAUCUUCUCGAUCUAACAAAAAAGACAAAUCUGCCACAAAGCUUGAGAGCAUCUUCGGAUGCAGAGGCGGCAGCCUUCGGUGGCGCGAUAGCGCCAACGUUCUCAACUAUGACACGCAAAAAGCGUGCUCCGUUGAAUGCAGUUUAUCAUG [C123A G141C], for which the “polymerase ribozyme fitness (log ratio)” value came out at 0.333.
On to GGAUCUUCUCGAUCUAACAAAAAAGACAAAUCUGCCACAAAGCUUGCGAGUAAAUUCGGAUGCAGAGGCGGCAGCCUUCGGUGGCGCGAUAGCGCCAACGUUCUCAACUAUGACACGCAAAACGCGUGCUCCGUUGAAUGUAGUUUAUCAUG [A47C C51U U53A C54A G141U], for which the “polymerase ribozyme fitness (log ratio)” value is -4.13.
GGAUCUUCUCGAUCUCACAAUAAAGACAAAUCUGCCACAAAGCUUGAGAGCAUCUUCGGAUGCAGAGGUGACAGCCUUCGGUGGCGCGAUAGCGCCAACGUUCUCAACUAUGACACGCAAAACGCGUGCUCCGUUGAAUGGAGUUUAUCAUG [A16C A21U C69U G71A]: the “polymerase ribozyme fitness (log ratio)” value was -1.79.
The result for GGAUCUUCUCGAUCUAACAAAAAAGACAAAUCUGCCAGAAAGCUUGAGAGCAUCUUCGGAUGCAGAGGCGGCAGGCUUCGGUGCCGCGAUAGCGCCAACGUUAUCAACUAUGACACGCAAAACGCGUGCUCCGUUGAAUGGAGUUUAUCAUG [C38G C75G G84C C103A] reads not above -4.2; that for GGAUCUUCUCGCUCUAACAAAAAAGACAAAUCUGCCACAAAGCUUGAGAGCAUCUUCGGAUGCAGAGGCGGCAGCCUUCGGUGGCGCGAUAGCGCCAAUGUUCUGAACUAUGACACGCAAAACGCGUGCUCCGUUGAAUGGAGUUUAUCAUG [A12C C99U C105G], not above -4.2.
Under GGAUCUUCUCGAUCUAACAAAAAAGACAAAUCUGCCAAAAAGCUUGAGAGCAUCUACGGAUGCAGAGGCGGCAGCCUUCGGUGGCGCGAUAGCGCCAACGUUCUCAACUAUGACACGCAAAACGCGUGCUCCGUUGGAUGGAGUUUAUCAUG [C38A U56A A137G] stands -2.08; under GGCUCUUCUCGAUCUAACAAAAAAGACAAAUCUGCCACAAAGCUUGAGAGCAUCUACGGAUGCAGAGGAGGCAGCCUUCGGUGGCGCGAUAGUGCCAACGUUCUCAACUAUGACACGCAAAACGCAUGCUCCGUUGAAGGGAGUUUAUCAUG [A3C U56A C69A C93U G126A U139G], -2.53; under GGAUCUUCUCGAUCUAACAAAAAAGACAAAUCUGCCACAAAGCUUGAGAGCAUCUUCGGAUGCAGAGGCGGCAGCCUUCGGUGGCGUGAUAGCGCCAACGUUCUUAUCUAUGACACGCAAAACGCGUGCUCCGUUGAAUGGAGUUUAUCAUG [C87U C105U A107U], -3.79.
For GGAUCUUCUCGCUCUAACAAAAAAGACAAAUCUGCCACAAAGCUUGAGAGCCUUUUCGGAUGCAGAGGCGGCAGCCUUCGGUGGCGCGAUAGCGCAAACGUUCUCAACUAUGACACGCAAAACGCGUGCUCCGUUGAAUGGAGUUUAUCAUG [A12C A52C C54U C96A], the “polymerase ribozyme fitness (log ratio)” value is -3.95.
Take GGAUCUUCUCGAUCUAACAAAAAAGACAAAUCUGCCACAAAGCUUGAGAGCAUCUUGGGAUGCAGAGGCGGCAGCCUUCGGUGGCGCGAUAGGGCCAACGUUCUCAACUAUGACACGCAAAACGCGUGCUCCGUUGAAUGGAGUUUAUCAUG [C57G C93G]: the “polymerase ribozyme fitness (log ratio)” value was -4.06.
